# Literature values, collected in paper PMC9346034.
# Key:
# Hsp70 (Homo sapiens) = Hsp70 (Homo sapiens) (UniProt P0DMV8)
# DnaK (Escherichia coli) = DnaK (Escherichia coli) (UniProt P0A6Y8)
# Sequence of DnaK (Escherichia coli) (P0A6Y8 2-638): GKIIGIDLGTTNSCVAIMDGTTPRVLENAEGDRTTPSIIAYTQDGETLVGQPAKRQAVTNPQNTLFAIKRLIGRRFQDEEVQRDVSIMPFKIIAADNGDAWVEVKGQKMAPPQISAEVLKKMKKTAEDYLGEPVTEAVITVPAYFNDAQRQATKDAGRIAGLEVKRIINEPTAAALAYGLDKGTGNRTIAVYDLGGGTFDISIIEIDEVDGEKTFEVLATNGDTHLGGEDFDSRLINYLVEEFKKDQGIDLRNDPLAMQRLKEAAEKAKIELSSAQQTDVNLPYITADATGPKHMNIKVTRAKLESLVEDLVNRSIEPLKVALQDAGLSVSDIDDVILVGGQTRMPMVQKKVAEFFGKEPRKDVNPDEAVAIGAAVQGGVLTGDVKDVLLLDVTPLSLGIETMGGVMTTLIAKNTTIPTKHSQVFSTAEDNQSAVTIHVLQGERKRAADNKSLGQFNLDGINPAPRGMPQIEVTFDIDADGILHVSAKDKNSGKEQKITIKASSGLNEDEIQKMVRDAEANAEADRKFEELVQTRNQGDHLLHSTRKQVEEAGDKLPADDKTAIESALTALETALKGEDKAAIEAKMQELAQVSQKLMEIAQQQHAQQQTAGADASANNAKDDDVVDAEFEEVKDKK
# Sequence of Hsp70 (Homo sapiens) (P0DMV8 2-641): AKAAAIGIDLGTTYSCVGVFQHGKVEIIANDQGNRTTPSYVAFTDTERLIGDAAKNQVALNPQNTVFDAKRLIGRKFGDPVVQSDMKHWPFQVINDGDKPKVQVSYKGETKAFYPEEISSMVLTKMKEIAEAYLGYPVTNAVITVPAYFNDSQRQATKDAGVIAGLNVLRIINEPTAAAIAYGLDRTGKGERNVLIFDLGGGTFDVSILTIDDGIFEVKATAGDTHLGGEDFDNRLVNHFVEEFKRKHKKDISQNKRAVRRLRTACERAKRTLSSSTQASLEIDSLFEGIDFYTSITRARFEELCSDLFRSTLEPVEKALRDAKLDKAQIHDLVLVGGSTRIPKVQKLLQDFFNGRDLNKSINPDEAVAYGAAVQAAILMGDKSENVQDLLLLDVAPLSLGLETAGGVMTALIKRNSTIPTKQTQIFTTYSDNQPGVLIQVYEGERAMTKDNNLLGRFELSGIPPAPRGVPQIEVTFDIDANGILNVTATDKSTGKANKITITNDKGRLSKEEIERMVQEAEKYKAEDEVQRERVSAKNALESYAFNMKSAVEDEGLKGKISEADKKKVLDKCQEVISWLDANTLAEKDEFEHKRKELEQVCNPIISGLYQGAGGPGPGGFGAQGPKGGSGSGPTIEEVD
# Sequence of DnaJ (P08622 2-376): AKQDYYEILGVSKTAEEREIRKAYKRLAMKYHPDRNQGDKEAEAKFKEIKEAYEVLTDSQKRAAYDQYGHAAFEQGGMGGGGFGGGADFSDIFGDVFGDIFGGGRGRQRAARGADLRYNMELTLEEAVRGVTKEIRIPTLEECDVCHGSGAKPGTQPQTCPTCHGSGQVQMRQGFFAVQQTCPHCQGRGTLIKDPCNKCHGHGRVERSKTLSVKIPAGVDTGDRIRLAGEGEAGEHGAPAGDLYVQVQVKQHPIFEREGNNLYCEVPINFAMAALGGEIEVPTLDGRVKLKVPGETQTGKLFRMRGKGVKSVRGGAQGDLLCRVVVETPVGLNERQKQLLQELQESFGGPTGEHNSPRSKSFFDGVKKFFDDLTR
# Sequence of Bag3-ΔBag ΔBag (O95817 2-420, stated change not applied): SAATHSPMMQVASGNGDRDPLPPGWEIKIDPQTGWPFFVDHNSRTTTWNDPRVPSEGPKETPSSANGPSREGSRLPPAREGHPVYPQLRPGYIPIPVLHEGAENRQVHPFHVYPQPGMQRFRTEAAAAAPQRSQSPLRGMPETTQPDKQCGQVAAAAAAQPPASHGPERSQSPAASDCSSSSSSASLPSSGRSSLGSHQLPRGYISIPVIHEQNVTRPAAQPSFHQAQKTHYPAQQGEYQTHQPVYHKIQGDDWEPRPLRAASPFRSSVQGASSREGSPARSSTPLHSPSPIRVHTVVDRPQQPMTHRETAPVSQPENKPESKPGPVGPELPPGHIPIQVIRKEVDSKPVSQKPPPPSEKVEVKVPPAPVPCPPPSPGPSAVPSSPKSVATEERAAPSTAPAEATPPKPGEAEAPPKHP
# Sequence of Bag3-ΔBag ΔBag (O95817 499-575, stated change not applied): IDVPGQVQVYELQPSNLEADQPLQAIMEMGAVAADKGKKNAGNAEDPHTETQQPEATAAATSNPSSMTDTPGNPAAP
Substance,Kd (Hsp70 (Homo sapiens)),Kd (DnaK (Escherichia coli))
Bag3-ΔBag ΔBag (from UniProt O95817),10 µM,–
DnaJ (from UniProt P08622),–,3.6 µM
